# According to patent US20190071499A1 (published 2019):
# T1: g1mIFN-α1 (mouse, UniProt P01572 24-189)
# T1 construct: also called murine IFN-α1 (Gaussia luciferase fusion); not shown: Gaussia luciferase fusion partner
# T1 sequence (looked up): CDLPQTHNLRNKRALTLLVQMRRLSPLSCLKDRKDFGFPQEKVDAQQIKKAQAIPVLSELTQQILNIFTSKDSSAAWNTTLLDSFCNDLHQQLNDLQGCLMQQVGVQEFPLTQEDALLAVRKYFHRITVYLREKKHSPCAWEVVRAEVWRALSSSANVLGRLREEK
# T2: g1mIFN-α9 (mouse, UniProt P09235 24-190)
# T2 construct: also called murine IFN-α9 (Gaussia luciferase fusion); not shown: Gaussia luciferase fusion partner
# T2 sequence (looked up): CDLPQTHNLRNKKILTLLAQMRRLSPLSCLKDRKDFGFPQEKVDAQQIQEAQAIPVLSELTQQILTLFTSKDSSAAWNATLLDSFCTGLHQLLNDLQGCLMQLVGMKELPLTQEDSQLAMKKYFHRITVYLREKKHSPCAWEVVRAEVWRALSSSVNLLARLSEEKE
# T3: peptide 23 of human IFN-αW (IFN-ω) (human)
# T3 construct: spotted on a microarray through a linker
# T3 peptide: TGLHQQLQHLETCLLQVV
# T4: human Fc fusion mouse IFN-α4 (mouse, UniProt P07351 25-186)
# T4 construct: bought (SinoBiological); also called murine IFN-α4; not shown: human Fc
# T4 sequence (looked up): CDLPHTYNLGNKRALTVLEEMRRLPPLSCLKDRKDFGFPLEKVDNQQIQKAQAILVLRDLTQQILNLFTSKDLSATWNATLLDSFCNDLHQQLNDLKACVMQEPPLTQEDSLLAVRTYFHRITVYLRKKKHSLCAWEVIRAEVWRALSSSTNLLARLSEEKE
# T5: human Fc fusion mouse IFN-α2 (mouse, UniProt P01573 24-190)
# T5 construct: bought (SinoBiological); also called murine IFN-α2; murine INFA2; not shown: human Fc
# T5 sequence (looked up): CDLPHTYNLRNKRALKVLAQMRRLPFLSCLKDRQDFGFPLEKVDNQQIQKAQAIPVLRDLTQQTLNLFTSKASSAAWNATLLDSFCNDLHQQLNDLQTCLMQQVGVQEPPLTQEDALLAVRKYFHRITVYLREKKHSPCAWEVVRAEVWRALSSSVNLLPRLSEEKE
# T6: peptide 22 of human IFN-α2 (human)
# T6 construct: spotted on a microarray through a linker
# T6 peptide: YTELYQQLNDLEACVIQG
# How the values were obtained:
# [1] = molecular target: T7, human IFN-α21 (human, UniProt P01568 24-189); assay: ELISA or LIPS (Table 7 summary)
# T7 construct: commercial recombinant protein; also called rhIFN-α21; IFN-α21 (PBL)
# T7 sequence (P01568 24-189 limits assumed): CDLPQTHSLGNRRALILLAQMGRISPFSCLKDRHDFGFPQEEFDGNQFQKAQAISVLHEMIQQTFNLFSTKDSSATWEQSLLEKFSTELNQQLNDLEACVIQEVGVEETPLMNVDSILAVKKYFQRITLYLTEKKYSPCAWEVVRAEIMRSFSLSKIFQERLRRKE
# [2] = molecular target: T8, human IFN-α10 (human, UniProt P01566 24-189); assay: ELISA or LIPS (Table 7 summary)
# T8 construct: recombinant protein; also called rhIFN-α10
# T8 sequence (P01566 24-189 limits assumed): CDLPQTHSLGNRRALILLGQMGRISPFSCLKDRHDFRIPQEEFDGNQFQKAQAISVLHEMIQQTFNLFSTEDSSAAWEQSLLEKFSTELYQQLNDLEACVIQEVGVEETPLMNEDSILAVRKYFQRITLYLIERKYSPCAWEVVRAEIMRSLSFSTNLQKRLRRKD
# [3] = molecular target: T9, human IFN-α1 (human, UniProt P0DY56 24-189); assay: ELISA or LIPS (Table 7 summary)
# T9 construct: commercial recombinant protein; also called IFN-alpha 1beta; IFN-α1/13
# T9 sequence (P0DY56 entry or part of it limits assumed): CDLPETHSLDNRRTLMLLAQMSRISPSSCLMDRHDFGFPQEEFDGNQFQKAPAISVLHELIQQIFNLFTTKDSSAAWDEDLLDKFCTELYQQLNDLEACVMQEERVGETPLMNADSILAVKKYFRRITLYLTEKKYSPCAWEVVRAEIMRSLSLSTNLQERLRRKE
# [4] = molecular target: T10, human IFN-α16 (human, UniProt P05015 24-189); assay: ELISA or LIPS (Table 7 summary)
# T10 construct: recombinant protein; also called rhIFN-α16
# T10 sequence (P05015 24-189 limits assumed): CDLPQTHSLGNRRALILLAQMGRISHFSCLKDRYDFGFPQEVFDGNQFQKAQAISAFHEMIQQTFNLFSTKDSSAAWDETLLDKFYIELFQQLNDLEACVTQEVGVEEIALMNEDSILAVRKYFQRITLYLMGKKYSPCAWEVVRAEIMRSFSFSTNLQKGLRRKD
# [5] = molecular target: T1, g1mIFN-α1; assay: LIPS
# [6] = molecular target: T2, g1mIFN-α9; assay: LIPS
# [7] = molecular target: T3, peptide 23 of human IFN-αW (IFN-ω); assay: peptide microarray, 18mer peptides of human IFN-αW
# [8] = molecular target: T4, human Fc fusion mouse IFN-α4; assay: ELISA, human Fc fusion mouse IFN-α
# Procedure: (§1) 96 well microplates (Costar, USA) were coated with human IFN-α1, IFN-α2 (ImmunoTools), IFN-α4 (SinoBiological), IFN-α5, IFN-α6, IFN-α8, IFN-α21 (all form PBL) and IFN-α14 (ATGen) or IFN-α8 (Novus Biologicals). Plates were washed with PBS-T and blocked 1 h at room temperature with PBS containing 2% BSA (Sigma, Buchs, Switzerland). Patient sera, B cell conditioned medium, or recombinant antibody preparations were incubated for 2 h at room temperature. Binding of human IgG to the antigen of interest was determined using a horseradish peroxidase conjugated goat anti human Fe-gamma-specific antibody (Jackson ImmunoResearch, Europe Ltd., Cambridgeshire, UK) followed by measurement of the HRP activity using a TMB substrate solution (TMB, Sigma, Buchs, Switzerland).
# [9] = molecular target: T5, human Fc fusion mouse IFN-α2; assay: ELISA, human Fc fusion mouse IFN-α
# Procedure: as §1
# [10] = molecular target: T6, peptide 22 of human IFN-α2; assay: peptide microarray, 18mer peptides of human IFN-α2
# [11] = molecular target: T7, human IFN-α21; assay: cell-based or functional assay
# [12] = molecular target: T8, human IFN-α10; assay: cell-based or functional assay
# [13] = molecular target: T11, human IFN-α4 (human, UniProt P05014 24-189); assay: cell-based or functional assay
# T11 sequence (P05014 24-189 limits assumed): as the sequence (P01566 24-189 limits assumed) above, with G19A, P26H, R37G, I38F, Q40E, N46H, I132T, R134K counted along it
# [14] = molecular target: T9, human IFN-α1; assay: cell-based or functional assay
# [15] = molecular target: T12, human IFN-α14 (human, UniProt P01570 24-189); assay: cell-based or functional assay
# T12 sequence (P01570 24-189 limits assumed): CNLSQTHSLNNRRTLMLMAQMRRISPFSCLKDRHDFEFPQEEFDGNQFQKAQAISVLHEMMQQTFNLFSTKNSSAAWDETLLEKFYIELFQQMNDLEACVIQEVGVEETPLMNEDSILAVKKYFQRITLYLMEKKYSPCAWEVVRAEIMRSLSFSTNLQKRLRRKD
# [16] = molecular target: human IFN-α17 (human, UniProt P01571 24-189); assay: cell-based or functional assay
# human IFN-α17, sequence (P01571 24-189 limits assumed): as the sequence (P01566 24-189 limits assumed) above, with G19A, R37G, I38L, A51T, D95N, V106M, I132T, R134K, R161I counted along it
# [17] = molecular target: human IFN-α6 (human, UniProt P05013 24-189, limits assumed); assay: cell-based or functional assay
# human IFN-α6, sequence (P05013 24-189 limits assumed): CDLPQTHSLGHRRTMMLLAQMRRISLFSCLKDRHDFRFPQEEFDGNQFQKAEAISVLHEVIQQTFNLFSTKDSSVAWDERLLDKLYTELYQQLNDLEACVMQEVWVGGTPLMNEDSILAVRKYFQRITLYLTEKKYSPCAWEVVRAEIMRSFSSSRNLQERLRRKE
# [18] = molecular target: human IFN-α5 (human, UniProt P01569 24-189, limits assumed); assay: cell-based or functional assay
# human IFN-α5, sequence (P01569 24-189 limits assumed): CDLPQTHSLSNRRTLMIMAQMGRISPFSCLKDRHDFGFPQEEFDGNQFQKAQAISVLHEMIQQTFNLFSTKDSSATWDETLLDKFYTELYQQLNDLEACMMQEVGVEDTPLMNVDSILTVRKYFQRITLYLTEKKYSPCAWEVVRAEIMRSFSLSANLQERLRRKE
# [19] = molecular target: human IFN-ω (human, UniProt P05000 24-195, limits assumed); assay: cell-based or functional assay
# human IFN-ω, sequence (P05000 24-195 limits assumed): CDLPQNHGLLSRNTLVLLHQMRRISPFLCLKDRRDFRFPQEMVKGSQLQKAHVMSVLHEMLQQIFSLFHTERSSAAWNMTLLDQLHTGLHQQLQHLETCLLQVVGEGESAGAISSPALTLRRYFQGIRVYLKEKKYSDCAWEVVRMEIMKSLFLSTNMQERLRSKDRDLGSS
# [20] = molecular target: T10, human IFN-α16; assay: cell-based or functional assay
# [21] = molecular target: human IFN-α7 (human, UniProt P01567 24-189); assay: cell-based or functional assay
# human IFN-α7, sequence (P01567 24-189 limits assumed): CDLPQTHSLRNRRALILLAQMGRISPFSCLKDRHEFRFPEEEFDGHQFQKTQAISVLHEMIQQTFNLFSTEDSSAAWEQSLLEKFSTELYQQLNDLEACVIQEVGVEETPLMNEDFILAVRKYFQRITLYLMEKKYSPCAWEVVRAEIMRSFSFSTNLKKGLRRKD
# [22] = molecular target: T13, g1 IFN-α10 (human, UniProt P01566 24-189); assay: LIPS, IFN-Gaussia luciferase fusion proteins
# T13 construct: in-house fusion; also called IFN-α10-Gaussia luciferase fusion protein; not shown: Gaussia luciferase (naturally secreted), N-terminal fusion partner
# T13 sequence (P01566 24-189): as the sequence (P01566 24-189 limits assumed) above
# [23] = molecular target: T11, human IFN-α4; assay: ELISA or LIPS (Table 7 summary)
# [24] = molecular target: T12, human IFN-α14; assay: ELISA or LIPS (Table 7 summary)
binding result [3],binding result [4],binding result [5],binding result [6],binding result [8],binding result [9],"IC 50 (ng/ml), ISRE dual luciferase reporter assay [11] [ng/mL]","IC 50 (ng/ml), ISRE dual luciferase reporter assay [12] [ng/mL]","IC 50 (ng/ml), ISRE dual luciferase reporter assay [13] [ng/mL]","IC 50 (ng/ml), ISRE dual luciferase reporter assay [14] [ng/mL]","IC 50 (ng/ml), ISRE dual luciferase reporter assay [15] [ng/mL]","IC 50 (ng/ml), ISRE dual luciferase reporter assay [16] [ng/mL]","IC 50 (ng/ml), ISRE dual luciferase reporter assay [17] [ng/mL]","IC 50 (ng/ml), ISRE dual luciferase reporter assay [18] [ng/mL]","IC 50 (ng/ml), ISRE dual luciferase reporter assay [19] [ng/mL]","IC 50 (ng/ml), ISRE dual luciferase reporter assay [20] [ng/mL]","IC 50 (ng/ml), ISRE dual luciferase reporter assay [21] [ng/mL]",Binder,further results
binds,binds,no binding,no binding,–,–,–,–,–,–,–,–,–,–,–,–,–,"25C3 (antibody, human IgG1, kappa, V domains shown, human-derived IgG1, kappa; also called MAB 25C3; hMAB 25C3) VH: EMQLMESGGGLVQPGGSLRLSCVASGFTFKSFAMSWVRQAPGKGLEWVASVGSQGGSKYYAPSVKGRFSISRDNSNNTLYVQMNSLGVEDTAFYYCVKETDAVATMDALDMWGQGTLVIVST VL: DIRVTQSPSSLSASVGDRVSISCQTSQSVNIYLNWYQQRPGKGPQLLISAASTLQSGVPSRFSGSGSGTDFILTIISLQPEDSASYYCQQGYITPYTFGQGTKVEIKR",binding result [1]: binds; binding result [2]: binds
–,–,no binding,no binding,no binding,no binding,4.65,1.84,2.07,8.6,2.01,2.22,3.16,3.74,0.5,4010,1.57,"26B9 (antibody, human IgG1, kappa, V domains shown, human-derived IgG1, kappa; also called MAB 26B9; hMAB 26B9) VH: QILLQESGPGLVKPTETLSLTCSVSGDSISDSSHYWAWIRQPPGKGPEWIGSVYFSSMTHYNPSLKSRVSISVDKPKNQFSLKVTSVTVADTATYYCARQALARVGAMNWFDPWGQGSLVTVSS VL: DIIMTQSPDSLPVSLGEGVTINCKSSQSVFFTSSNKSCLAWYQQKPGKSPKLLIYWASTRQSGVPDRFRGSGSGTDFSLTITSLQAEDVAVYFCQQCQTSPPTFGGGTRLEIKR",binding result [7]: binds; binding result [10]: binds
binds,binds,no binding,no binding,no binding,no binding,–,–,–,–,–,–,–,–,–,–,–,"31B4 (antibody, human IgG1, kappa, V domains shown, human-derived IgG1, kappa; clonally related to 26B9; also called MAB 31B4; hMAB 31B4) VH: QIQLQESGPGLVRPTETLSLTCSVSGDSISQSSHYWAWIRQPPGKGPEWIGSVYFSSMTHYNPSLTSRVSISIDKAMNKFSLKVTSVTVADTATYYCARQALARVGAMNWFDPWGQGSLVTVSS VL: DIIMTQSPESLPVSLGEGVTINCKSSQSVFFTSSNRSCLAWYQQKPGQSPKLLIYWASTRQSGVPDRFTGSGSGTDFSLTIAGLQVEDVAVYFCQQCHASPPTFGGGTRLELRR",binding result [22]: binds; binding result [1]: binds; binding result [2]: binds; binding result [23]: binds; binding result [24]: binds
–,–,–,–,–,–,3.05,3.63,20.2,97.4,9.2,2.31,39.3,0.91,113,2.35,1.9,"50E11 (antibody, human IgG1, kappa, V domains shown) VH: QVQLVQSGAEMKKPGSSVKVSCKDFGGTFSVYGVNWVRQAPGQGLEWMGGLIPVIGPANYAQKFQGRITITADESTSTAYMELSSLRFDDTAIYYCVRDDNEYWGQGTLVTVSS VL: EMVLTQSPATLSLSPGERATLSCRASQTVSTFLAWYQQKPGQVPRLLVYDISSRANGTPARFSGGGSGTDFTLTISSLELEDFAVYYCQWRSNWPPSLTFGGGTRVEIKR",–
–,–,–,–,–,–,13,0.66,0.48,51.3,2.15,0.75,3.55,22.6,–,33,0.64,"12H5 (antibody, human IgG1, kappa, V domains shown) VH: QVQLIQSGPEVKRPGASVKVSCKASENTFDTHYINWVRQAPGQGLTWLGWLNPTTGKTGFPQKFKGRVILTSDTSLNTAYMEVSRLTSEDTAVYFCARVLKLSDEYNYGFDVWGQGTTVIVSS VL: DIQVTQSPSSLSASIGDRVTITCRASQNILTFINWYQHKPGKAPKLLIYAASVLQNEVPSRFSGSGSGTDFTLTITSLQPDDFGTYYCQQTYLTPQCSFGQGTKVEIKR",–
–,–,–,–,–,–,2.78,2.69,5.43,29,785,2.11,77.7,1.78,2.13,1.86,0.9,"8H1 (antibody, human IgG1, kappa, V domains shown) VH: QVQLVQSGAEVKKPGASVKVSCKASGQTFTSDDINWVRQAPGQGLEWMGWRNPNTQDTGYAQKFHGRLTLTSNSSISTSYLELSGLRSEDTAVYYCARAGTSTLTGHYFALGVWGQGTTVIVSS VL: DIQLTQSPSSLSASVGDRVTITCQATQDISKYLNWYQQKPGKVPKLLIYETSNLEVGVPSRFSGSGSGTHFTLTISSLQAEDFATYYCQQYENFPFTFGGGTKVEIKR",–
binds,binds,no binding,no binding,no binding,no binding,–,–,–,–,–,–,–,–,–,–,–,"13B11 (antibody, human IgG1, kappa, V domains shown, human-derived IgG1, kappa; also called MAB 13B11; hMAB 13B11) VH: DVQLLQSGGGLIQPGGSLRLSCAASGFTFKDYAMSWVRQAPGKGLEWVSVISRSGNIVDYVDSVKGRFTVSRDNSNNTLFLQMDGLRADDTAIYYCAKPKDMIVVVPAGFDSWGQGTLVSVSS VL: DIQMTQFPSTLSASVGDSVTITCRASQSISAWLAWYQQKPGKAPKLLIYKGSRLENGVPSRFSGSGSGTEFTLTIGSLQPDDFATYYCQQYKTWTFGQGTKVEIKR",binding result [24]: binds
